Data from the supplement of paper PMC9112550, “Optimization of the antimicrobial peptide Bac7 by deep mutational scanning” (BMC Biology, 2022).

Test system: Escherichia coli TOP10
Assay: shrunken log2 fold change of peptide-encoding DNA abundance (4.5 h post-induction vs induction); higher = less antimicrobial activity (less host growth inhibition)
Conditions: time post-induction: 4.5 h; library: site-saturation at positions 5, 18, 19, 20
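Note: peptides expressed intracellularly from a pBAD plasmid library in pooled LB shake-flask culture, induced with 0.3% L-arabinose, DNA abundance read by NGS, three biological replicates, DESeq2 with apeglm shrinkage.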

| Sequence | shrunken log2 fold change |
| --- | --- |
| RRIRYRPPRLPRPRPRPRKNPRP | -0.268 |
| RRIRGRPPRLPRPRPRPGSVPRP | 0.484 |
| RRIRWRPPRLPRPRPRPNQMPRP | -0.0159 |
| RRIRYRPPRLPRPRPRPMSLPRP | 0.0155 |
| RRIRNRPPRLPRPRPRPRNKPRP | -0.107 |
| RRIRNRPPRLPRPRPRPISCPRP | -0.205 |
| RRIRVRPPRLPRPRPRPPMVPRP | 0.0314 |
| RRIRSRPPRLPRPRPRPFFYPRP | -0.17 |
| RRIRDRPPRLPRPRPRPGFQPRP | 0.252 |
| RRIRQRPPRLPRPRPRPNMPPRP | -0.634 |
| RRIRCRPPRLPRPRPRPHHMPRP | -1.36 |
| RRIRQRPPRLPRPRPRPQFHPRP | -0.591 |
| RRIRYRPPRLPRPRPRPSVVPRP | -0.844 |
| RRIRYRPPRLPRPRPRPAEKPRP | -0.0964 |
| RRIRDRPPRLPRPRPRPHKNPRP | -0.296 |
| RRIRPRPPRLPRPRPRPIMPPRP | -0.257 |
| RRIRRRPPRLPRPRPRPVVTPRP | 0.911 |
| RRIRVRPPRLPRPRPRPQYCPRP | -0.095 |
| RRIRDRPPRLPRPRPRPNVNPRP | -0.166 |
| RRIRFRPPRLPRPRPRPHCTPRP | -0.268 |
| RRIRDRPPRLPRPRPRPICRPRP | 0.266 |
| RRIRLRPPRLPRPRPRPWQKPRP | 0.0576 |
| RRIRPRPPRLPRPRPRPGQGPRP | 0.201 |

| Sequence | shrunken log2 fold change |
| --- | --- |
| RRIRLRPPRLPRPRPRPGVVPRP | 0.27 |
| RRIRWRPPRLPRPRPRPYHDPRP | -0.868 |
| RRIRYRPPRLPRPRPRPFQQPRP | -0.0176 |
| RRIRTRPPRLPRPRPRPGCNPRP | 0.0386 |
| RRIRGRPPRLPRPRPRPRGYPRP | 0.382 |
| RRIRTRPPRLPRPRPRPCEQPRP | 0.0027 |
| RRIRPRPPRLPRPRPRPMDVPRP | -0.0123 |
| RRIRYRPPRLPRPRPRPHHAPRP | -0.00186 |
| RRIRSRPPRLPRPRPRPAENPRP | 0.151 |
| RRIRTRPPRLPRPRPRPQGMPRP | 0.0427 |
| RRIRSRPPRLPRPRPRPRVMPRP | -0.171 |
| RRIRVRPPRLPRPRPRPLEKPRP | 0.158 |
| RRIRCRPPRLPRPRPRPYENPRP | -0.145 |
| RRIRARPPRLPRPRPRPIQAPRP | -0.0205 |
| RRIRARPPRLPRPRPRPRIWPRP | 0.164 |
| RRIRYRPPRLPRPRPRPYPTPRP | -0.282 |
| RRIRGRPPRLPRPRPRPYDGPRP | -0.387 |
| RRIRQRPPRLPRPRPRPPNPPRP | 0.109 |
| RRIRYRPPRLPRPRPRPAFEPRP | -0.0224 |
| RRIRLRPPRLPRPRPRPVIRPRP | -0.502 |
| RRIRMRPPRLPRPRPRPWIHPRP | -0.0313 |
| RRIRLRPPRLPRPRPRPSPNPRP | -0.183 |
| RRIRPRPPRLPRPRPRPVMVPRP | 0.171 |

| Sequence | shrunken log2 fold change |
| --- | --- |
| RRIRVRPPRLPRPRPRPYWEPRP | -0.508 |
| RRIRRRPPRLPRPRPRPSRHPRP | 0.319 |
| RRIRQRPPRLPRPRPRPHVNPRP | 0.0398 |
| RRIRGRPPRLPRPRPRPIIYPRP | 0.0582 |
| RRIRYRPPRLPRPRPRPIKTPRP | -0.154 |
| RRIRHRPPRLPRPRPRPFWCPRP | -0.3 |
| RRIRKRPPRLPRPRPRPQFNPRP | -0.281 |
| RRIRVRPPRLPRPRPRPPHTPRP | 0.0516 |
| RRIRPRPPRLPRPRPRPDSLPRP | -0.257 |
| RRIRHRPPRLPRPRPRPSIIPRP | -0.237 |
| RRIRWRPPRLPRPRPRPMRWPRP | 0.648 |
| RRIRGRPPRLPRPRPRPAMGPRP | 0.541 |
| RRIRVRPPRLPRPRPRPISHPRP | -0.326 |
| RRIRHRPPRLPRPRPRPQRSPRP | 0.0449 |
| RRIRHRPPRLPRPRPRPYYIPRP | 0.0121 |
| RRIRNRPPRLPRPRPRPFIDPRP | -0.114 |
| RRIRLRPPRLPRPRPRPMWEPRP | 0.00629 |
| RRIRPRPPRLPRPRPRPGVDPRP | 0.0426 |
| RRIRYRPPRLPRPRPRPQHEPRP | 0.0438 |
| RRIRTRPPRLPRPRPRPAGFPRP | -0.0588 |
| RRIRMRPPRLPRPRPRPKWTPRP | 0.0304 |
| RRIRERPPRLPRPRPRPMWDPRP | -0.0758 |
| RRIRIRPPRLPRPRPRPDKLPRP | -0.275 |

| Sequence | shrunken log2 fold change |
| --- | --- |
| RRIRERPPRLPRPRPRPCNTPRP | -0.118 |
| RRIRERPPRLPRPRPRPCKLPRP | -0.187 |
| RRIRLRPPRLPRPRPRPWTLPRP | 0.00677 |
| RRIRKRPPRLPRPRPRPSQKPRP | 0.0284 |
| RRIRIRPPRLPRPRPRPKHHPRP | -0.366 |
| RRIRVRPPRLPRPRPRPFAQPRP | 0.0825 |
| RRIRWRPPRLPRPRPRPRDSPRP | -0.299 |
| RRIRFRPPRLPRPRPRPCPHPRP | -0.135 |
| RRIRMRPPRLPRPRPRPYSKPRP | -0.145 |
| RRIRYRPPRLPRPRPRPGQTPRP | -0.0773 |
| RRIRIRPPRLPRPRPRPNKNPRP | -0.701 |
| RRIRERPPRLPRPRPRPISNPRP | -0.25 |
| RRIRCRPPRLPRPRPRPYSIPRP | -0.608 |
| RRIRDRPPRLPRPRPRPYTRPRP | -0.0984 |
| RRIRRRPPRLPRPRPRPIHIPRP | -0.579 |
| RRIRRRPPRLPRPRPRPDQRPRP | -0.0913 |
| RRIRGRPPRLPRPRPRPWNGPRP | 0.0616 |
| RRIRRRPPRLPRPRPRPHMWPRP | -0.0704 |
| RRIRGRPPRLPRPRPRPMGLPRP | -0.0139 |
| RRIRNRPPRLPRPRPRPMGWPRP | -0.00822 |
| RRIRARPPRLPRPRPRPCQFPRP | -0.0602 |
| RRIRDRPPRLPRPRPRPQMAPRP | 0.116 |
